The values that follow come from patent US20240043551A1 (ADLAI NORTYE BIOPHARMA, published 2024).

Experiment [1] deals with T1, Human TNFR1 (Acro Biosystem, TN1-H5222) (human, UniProt P19438 30-211).
T1 construct: Bought protein; also called TNF receptor type 1; CD120a
T1 sequence (looked up): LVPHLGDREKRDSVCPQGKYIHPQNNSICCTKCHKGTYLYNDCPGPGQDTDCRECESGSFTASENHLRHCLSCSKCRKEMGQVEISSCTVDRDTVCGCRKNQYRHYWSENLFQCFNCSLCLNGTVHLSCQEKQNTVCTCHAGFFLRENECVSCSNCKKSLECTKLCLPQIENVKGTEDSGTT
The experiment is described as follows: ELISA, receptor coated at 1 µg/mL. How it is done:
(§1) Human TNFR2 (Acro Biosystem, TN2-H5227), Human TNFR1 (Acro Biosystem, TN1-H5222), Cynomolgus TNFR2 (Sino Biological, 90102-CO8H) or mouse TNFR2 (R&D systems, 426-R2-050/CF) was coated on high binding polystyrene flat bottom micro-titer plates (Thermo Scientific, 3455) in PBS (PH=7.4, Gibco,10010-031) at 1 μg/mL and 100 μL per well. Plates were incubated at 4° C. overnight.
(§2) Plates were warmed up to room temperature the next day and washed with 200 μL PBS containing 0.1% Tween 20 (Life technologies, 003005) per well for 3 times. Plates were blocked with 200 μL PBS buffer containing 1% BSA (Fisher Scientific, BP1600-100) per well for 1 hour at 37° C. Antibodies was titrated from 5 μg/mL in a 5-fold dilution series, distributed 100 μL per well and incubated at 37° C. for 1 hour. Human IgG1 isotype control (BioxCell, BE0297) was used as negative control. Plates were washed with 200 μL PBS containing 0.1% Tween 20 (Life technologies, 003005) per well for 3 times. Goat anti-Human IgG Fc Secondary Antibody-HRP conjugate (Invitrogen, A18817) were distributed at 0.5μg/mL and 100 μL per well to detect bound antibodies. After 1-hour incubation of secondary antibody at 37° C., plates were washed with 200 μL PBS containing 0.1% Tween 20 (Life technologies, 003005) per well for 3 times. Plates were developed using TMB Substrate Solution (eBioscience, 00-4201-56) and stopped with ELISA stop solution (Invitrogen, SSO4). The level of bound antibodies was determined by reading absorbance at 450 nm. Mouse anti-human TNFR1 antibody (ThermoFisher Scientific, MA1-81005) and goat anti mouse IgG secondary antibody-HRP conjugate (Invitrogen, 62-5520) were used as positive control for human TNFR1 detection. Armenian Hamster anti-mouse TNFR2 antibody (InVivoMab, BE0247) and HRP-Goat anti-Armenian Hamster IgG (H+L) Secondary Antibody (Invitrogen, PA1-32045) were used as positive control for mouse TNFR2 detection.
A general note: An ELISA detects its analyte on a solid surface through an enzyme-linked reagent.

Experiment [2] has as its target T2, mouse TNFR2 (R&D systems, 426-R2-050/CF) (mouse, UniProt P25119 23-258).
T2 construct: Bought protein
T2 sequence (looked up): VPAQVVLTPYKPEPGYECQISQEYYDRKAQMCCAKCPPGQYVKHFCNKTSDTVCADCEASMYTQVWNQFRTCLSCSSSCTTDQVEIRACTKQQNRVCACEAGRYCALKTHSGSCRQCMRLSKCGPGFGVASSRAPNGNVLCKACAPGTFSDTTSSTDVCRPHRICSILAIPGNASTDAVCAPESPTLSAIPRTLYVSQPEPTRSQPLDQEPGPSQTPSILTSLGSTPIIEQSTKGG
Briefly: ELISA, receptor coated at 1 µg/mL. How it is done:
as §1, §2

Experiment [3] addresses T3, rat TNFR2 (R&D systems, 8348-R2-050) (rat, UniProt Q80WY6 23-258).
T3 construct: Bought protein
T3 sequence (looked up): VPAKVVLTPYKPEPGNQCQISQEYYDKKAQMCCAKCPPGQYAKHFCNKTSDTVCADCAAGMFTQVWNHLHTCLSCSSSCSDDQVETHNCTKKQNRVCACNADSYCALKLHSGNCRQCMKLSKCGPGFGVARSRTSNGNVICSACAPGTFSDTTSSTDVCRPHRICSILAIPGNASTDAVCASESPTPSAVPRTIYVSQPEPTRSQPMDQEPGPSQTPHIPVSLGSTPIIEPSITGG
Briefly: ELISA, receptor coated at 1 µg/ml. As to the method: Plates were incubated at 4° C. overnight. Antibodies was titrated from 100 μg/ml in a 5-fold dilution series, and distributed 100 μL, per well and incubated at 37° C. for 1 hour. Human IgG1 isotype control (BioxCell, BE0297) was used as negative control. TNFR2 Polyclonal Antibody (Invitrogen, PAS-80159) and HRP conjugated Goat anti-Rabbit IgG Fc Secondary Antibody (Invitrogen, A16116) were used as positive control for rat TNFR2 detection.

B1: TN36-10 (antibody, V domains shown)
VH: EVQLVESGGGLIQPGGSLRLSCAASGFSLSSSAVSWVRQAPGKGLEWIGAIGSGGTSYYSNWAKSRFTISRDTSKNTVYLQMNSLRAEDTAVYFCARDPNSSDYPYGAYGMGLWGPGTLVTVSS
VL: DIQMTQSPSSLSASVGDRVTITCQVSQSISSYLSWYQQKPGKAPKLLIYYASTLASGVPSRFSGSGSGTDFTLTISSLQPEDFATYYCQQGYITSNVGNAFGGGTKVEIK
notes: Humanized; also called AL4/AL8
B1: the binding result in experiment [1] is reported as “no binding (tested: titrated from 5 µg/mL)”; in experiment [2] it was “no binding (tested: titrated from 5 µg/mL)”; in experiment [3] it was “no binding (tested: titrated from 100 µg/ml)”.

B2: TN36-15 (antibody, human IgG1, V domains shown)
VH: EVQLVESGGGLVQPGGSLRLSCAASGFSLSSSAVSWVRQAPGKGLEWIGAIGSGGTSYYSNWAKSRFTISRDNSKNTLYLQMNSLRAEDTAVYYCARDPNSSDYPYGAYGMGLWGQGTLVTVSS
VL: DIQMTQSPSSLSASVGDRVTITCQVSQSISSYLSWYQQKPGKPPKLLIYYASTLASGVPSRFSGSGSGTDFTLTISSLQPEDFATYYCQQGYITSNVGNAFGGGTKVEIK
notes: Humanized; also called AL5/AL9
As to B2, the figures for the binding result in experiment [1], in experiment [2] and in experiment [3] were “no binding (tested: titrated from 5 µg/mL)”, “no binding (tested: titrated from 5 µg/mL)” and “no binding (tested: titrated from 100 µg/ml)”, respectively.

B3: TN36-13 (antibody, human IgG1, V domains shown)
VH: EVQLVESGGGLIQPGGSLRLSCAASGFSLSSSAVSWVRQAPGKGLEWIGAIGSGGTSYYSNWAKSRFTISRDTSKNTVYLQMNSLRAEDTAVYFCARDPNSSDYPYGAYGMGLWGPGTLVTVSS
VL: DIQLTQSPSFLSASVGDRVTITCQVSQSISSYLSWYQQKPGKAPKLLIYYASTLASGVPSRFSGSGSGTEFTLTISSLQPEDFATYYCQQGYITSNVGNAFGGGTKVEIK
notes: Humanized; also called AL4/AL11
With B3, the binding result was “no binding (tested: titrated from 5 µg/mL)” in experiment [1], “no binding (tested: titrated from 5 µg/mL)” in experiment [2] and “no binding (tested: titrated from 100 µg/ml)” in experiment [3].

B4: TN36-11 (antibody, human IgG1, V domains shown)
VH: EVQLVESGGGLIQPGGSLRLSCAASGFSLSSSAVSWVRQAPGKGLEWIGAIGSGGTSYYSNWAKSRFTISRDTSKNTVYLQMNSLRAEDTAVYFCARDPNSSDYPYGAYGMGLWGPGTLVTVSS
VL: DIQMTQSPSSLSASVGDRVTITCQVSQSISSYLSWYQQKPGKPPKLLIYYASTLASGVPSRFSGSGSGTDFTLTISSLQPEDFATYYCQQGYITSNVGNAFGGGTKVEIK
notes: Humanized; also called AL4/AL9
Turning to B4, the values for the binding result in experiment [1], in experiment [2] and in experiment [3] were “no binding (tested: titrated from 5 µg/mL)”, “no binding (tested: titrated from 5 µg/mL)” and “no binding (tested: titrated from 100 µg/ml)”, respectively.

B5: TN36-18 (antibody, human IgG1, V domains shown)
VH: EVQLVESGGGLVQPGGSLRLSCAASGFSLSSSAVSWVRQAPGKGLEWIGAIGSGGTSYYSNWAKSRFTISRDNSKNTLYLQMNSLRAEDTAVYYCARDPNSSDYPYGAYGMGLWGPGTLVTVSS
VL: DIQMTQSPSSLSASVGDRVTITCQVSQSISSYLSWYQQKPGKAPKLLIYYASTLASGVPSRFSGSGSGTDFTLTISSLQPEDFATYYCQQGYITSNVGNAFGGGTKVEIK
notes: Humanized; also called AL6/AL8
In the case of B5, the binding result is “no binding (tested: titrated from 5 µg/mL)” in experiment [1], “no binding (tested: titrated from 5 µg/mL)” in experiment [2] and “no binding (tested: titrated from 100 µg/ml)” in experiment [3].

B6: TN36-19 (antibody, human IgG1, V domains shown)
VH: EVQLVESGGGLVQPGGSLRLSCAASGFSLSSSAVSWVRQAPGKGLEWIGAIGSGGTSYYSNWAKSRFTISRDNSKNTLYLQMNSLRAEDTAVYYCARDPNSSDYPYGAYGMGLWGPGTLVTVSS
VL: DIQMTQSPSSLSASVGDRVTITCQVSQSISSYLSWYQQKPGKPPKLLIYYASTLASGVPSRFSGSGSGTDFTLTISSLQPEDFATYYCQQGYITSNVGNAFGGGTKVEIK
notes: Humanized; also called AL6/AL9
Consider B6, for which the binding result in experiment [1] is “no binding (tested: titrated from 5 µg/mL)”; in experiment [2] it was “no binding (tested: titrated from 5 µg/mL)”; in experiment [3] it was “no binding (tested: titrated from 100 µg/ml)”.

B7: TN36-17 (antibody, human IgG1, V domains shown)
VH: EVQLVESGGGLVQPGGSLRLSCAASGFSLSSSAVSWVRQAPGKGLEWIGAIGSGGTSYYSNWAKSRFTISRDNSKNTLYLQMNSLRAEDTAVYYCARDPNSSDYPYGAYGMGLWGQGTLVTVSS
VL: DIQLTQSPSFLSASVGDRVTITCQVSQSISSYLSWYQQKPGKAPKLLIYYASTLASGVPSRFSGSGSGTEFTLTISSLQPEDFATYYCQQGYITSNVGNAFGGGTKVEIK
notes: Humanized; also called AL5/AL11
Turning to B7, the binding result in experiment [1] is recorded as “no binding (tested: titrated from 5 µg/mL)”; in experiment [2] it was “no binding (tested: titrated from 5 µg/mL)”; in experiment [3], “no binding (tested: titrated from 100 µg/ml)”.

B8: TN36-14 (antibody, human IgG1, V domains shown)
VH: EVQLVESGGGLVQPGGSLRLSCAASGFSLSSSAVSWVRQAPGKGLEWIGAIGSGGTSYYSNWAKSRFTISRDNSKNTLYLQMNSLRAEDTAVYYCARDPNSSDYPYGAYGMGLWGQGTLVTVSS
VL: DIQMTQSPSSLSASVGDRVTITCQVSQSISSYLSWYQQKPGKAPKLLIYYASTLASGVPSRFSGSGSGTDFTLTISSLQPEDFATYYCQQGYITSNVGNAFGGGTKVEIK
notes: Humanized; also called AL5/AL8
As for B8, the results for the binding result in experiment [1], in experiment [2] and in experiment [3] were “no binding (tested: titrated from 5 µg/mL)”, “no binding (tested: titrated from 5 µg/mL)” and “no binding (tested: titrated from 100 µg/ml)”, respectively.

B9: TN36-12 (antibody, human IgG1, V domains shown)
VH: EVQLVESGGGLIQPGGSLRLSCAASGFSLSSSAVSWVRQAPGKGLEWIGAIGSGGTSYYSNWAKSRFTISRDTSKNTVYLQMNSLRAEDTAVYFCARDPNSSDYPYGAYGMGLWGPGTLVTVSS
VL: DIQMTQSPSFLSASVGDRVTITCQVSQSISSYLSWYQQKPGKAPKLLIYYASTLASGVPSRFSGSGSGTDFTLTISSLQPEDFATYYCQQGYITSNVGNAFGGGTKVEIK
notes: Humanized; also called AL4/AL10
Turning to B9, the binding result is recorded as “no binding (tested: titrated from 5 µg/mL)” in experiment [1], “no binding (tested: titrated from 5 µg/mL)” in experiment [2] and “no binding (tested: titrated from 100 µg/ml)” in experiment [3].

B10: TN36-16 (antibody, human IgG1, V domains shown)
VH: EVQLVESGGGLVQPGGSLRLSCAASGFSLSSSAVSWVRQAPGKGLEWIGAIGSGGTSYYSNWAKSRFTISRDNSKNTLYLQMNSLRAEDTAVYYCARDPNSSDYPYGAYGMGLWGQGTLVTVSS
VL: DIQMTQSPSFLSASVGDRVTITCQVSQSISSYLSWYQQKPGKAPKLLIYYASTLASGVPSRFSGSGSGTDFTLTISSLQPEDFATYYCQQGYITSNVGNAFGGGTKVEIK
notes: Humanized; also called AL5/AL10
B10: the binding result in experiment [1] was “no binding (tested: titrated from 5 µg/mL)”; in experiment [2] it was “no binding (tested: titrated from 5 µg/mL)”; in experiment [3], “no binding (tested: titrated from 100 µg/ml)”.
